Holding throughout (assay): cryo-EM structure; SWR1-hexasome complex, 3.5 Å; SWR1 premixed 1:1 with hexasome, 1 mM ADP:BeF, 25 mM HEPES pH 7.5, 50 mM NaCl, 30°C 10 min, glycerol gradient, no crosslinking
What all share (settings): both partners purified

In experiment [1] the target is T1, Arp6 subunit (yeast, UniProt Q12509 1-438).
T1 construct: Stood in the assay as part of m1
T1 sequence: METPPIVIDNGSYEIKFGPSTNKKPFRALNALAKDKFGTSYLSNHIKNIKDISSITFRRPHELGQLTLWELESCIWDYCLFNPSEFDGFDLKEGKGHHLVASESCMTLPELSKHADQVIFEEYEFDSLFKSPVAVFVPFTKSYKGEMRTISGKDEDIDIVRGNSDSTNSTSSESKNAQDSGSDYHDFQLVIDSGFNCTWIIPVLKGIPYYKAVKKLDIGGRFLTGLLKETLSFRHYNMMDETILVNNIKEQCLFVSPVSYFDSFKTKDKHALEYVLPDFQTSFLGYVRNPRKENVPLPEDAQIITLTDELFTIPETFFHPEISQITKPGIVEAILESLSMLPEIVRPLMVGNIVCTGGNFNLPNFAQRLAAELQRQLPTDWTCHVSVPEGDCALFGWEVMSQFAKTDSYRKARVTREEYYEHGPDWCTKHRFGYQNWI

In experiment [2] the target is S. cerevisiae histone H4 (S. cerevisiae, UniProt P02309 1-103).
Experiment [3] deals with T2, Swr1 subunit (yeast, UniProt Q05471 1-1514).
T2 construct: Stood in the assay as part of m1; also called Swr1 motor domains
T2 sequence (Q05471 whole entry, the tested form may be a part): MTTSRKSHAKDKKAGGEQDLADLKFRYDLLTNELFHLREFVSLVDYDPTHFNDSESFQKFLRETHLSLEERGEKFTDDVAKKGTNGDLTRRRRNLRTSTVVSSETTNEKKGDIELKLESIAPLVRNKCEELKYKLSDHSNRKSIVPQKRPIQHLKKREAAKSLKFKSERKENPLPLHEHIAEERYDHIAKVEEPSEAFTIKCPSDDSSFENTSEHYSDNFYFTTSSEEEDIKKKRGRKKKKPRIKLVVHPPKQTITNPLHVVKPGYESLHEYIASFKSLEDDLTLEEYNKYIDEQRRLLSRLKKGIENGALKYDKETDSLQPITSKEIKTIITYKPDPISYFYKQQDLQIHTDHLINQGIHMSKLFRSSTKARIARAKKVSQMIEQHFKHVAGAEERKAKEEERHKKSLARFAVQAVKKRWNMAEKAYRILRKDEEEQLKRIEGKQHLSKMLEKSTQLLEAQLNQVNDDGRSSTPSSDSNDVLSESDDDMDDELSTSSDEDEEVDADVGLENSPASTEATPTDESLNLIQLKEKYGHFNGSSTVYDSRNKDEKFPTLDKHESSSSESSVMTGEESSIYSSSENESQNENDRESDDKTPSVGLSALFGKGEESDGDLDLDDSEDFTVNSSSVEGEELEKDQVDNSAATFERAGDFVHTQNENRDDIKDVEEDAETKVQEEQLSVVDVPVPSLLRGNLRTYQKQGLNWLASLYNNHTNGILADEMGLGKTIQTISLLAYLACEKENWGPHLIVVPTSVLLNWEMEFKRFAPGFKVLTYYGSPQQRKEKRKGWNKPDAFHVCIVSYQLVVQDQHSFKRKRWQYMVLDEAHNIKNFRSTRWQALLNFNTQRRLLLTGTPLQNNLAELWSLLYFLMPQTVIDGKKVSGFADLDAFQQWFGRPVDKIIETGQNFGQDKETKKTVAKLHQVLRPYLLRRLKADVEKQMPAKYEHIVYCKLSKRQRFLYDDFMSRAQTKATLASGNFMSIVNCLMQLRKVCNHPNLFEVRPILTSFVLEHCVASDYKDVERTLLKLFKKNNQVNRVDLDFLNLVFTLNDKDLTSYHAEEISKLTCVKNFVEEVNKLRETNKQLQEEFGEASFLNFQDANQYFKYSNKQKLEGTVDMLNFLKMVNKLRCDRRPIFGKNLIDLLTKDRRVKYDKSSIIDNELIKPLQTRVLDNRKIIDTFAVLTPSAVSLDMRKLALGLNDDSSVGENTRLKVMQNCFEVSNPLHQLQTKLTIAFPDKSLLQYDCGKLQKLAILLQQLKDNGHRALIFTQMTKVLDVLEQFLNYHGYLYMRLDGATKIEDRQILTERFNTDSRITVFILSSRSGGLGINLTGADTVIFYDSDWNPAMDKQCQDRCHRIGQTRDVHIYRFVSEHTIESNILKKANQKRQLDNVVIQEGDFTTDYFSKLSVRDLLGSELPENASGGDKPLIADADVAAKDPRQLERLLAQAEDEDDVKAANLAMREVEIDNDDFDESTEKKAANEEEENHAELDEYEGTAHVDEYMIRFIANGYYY

B1: Swc6 subunit (natural protein, yeast)
chain: MKALVEEIDKKTYNPDIYFTSLDPQARRYTSKKINKQGTISTSRPVKRINYSLADLEARLYTSRSEGDGNSISRQDDRNSKNSHSFEERYTQQEILQSDRRFMELNTENFSDLPNVPTLLSDLTGVPRDRIESTTKPISQTSDGLSALMGGSSFVKEHSKYGHGWVLKPETLREIQLSYKSTKLPKPKRKNTNRIVALKKVLSSKRNLHSFLDSALLNLMDKNVIYHNVYNKRYFKVLPLITTCSICGGYDSISSCVNCGNKICSVSCFKLHNETRCRNR
notes: Stood in the assay as part of m1
Regarding B1, the binding result in experiment [1] is on record as “binds”.

B2: Swc5 subunit (natural protein, yeast)
chain: MPEVETKIIPNEKEDEDEDGYIEEEDEDFQPEKDKLGGGSDDSDASDGGDDYDDGVNRDKGRNKVDYSRIESESGGLIKTRRARQAEEEYAKTHKYESLTVESIPAKVNSIWEELQEASKNRLLSSSGKVGSVLDGSKEARSTTAAQQEDKILIERNYKFAGETVHEKKWVSRSSAEGQEYLNSLKFKQQAPAAPVQLEKAVRTKSNESRQHLRRPLKRPPLLEQIISGGLRPKLTTLEKSQLDWASYVDRAGLNDELVLHNKDGFLARQEFLQRVGSAEDERYKELRRQQLAQQLQQDSEAS
notes: residues 196-303 built in the structure; Stood in the assay as part of m1
As for B2, the binding result in experiment [2] and in experiment [3] was “binds” each time.

The values are drawn from PMC7619409 (Molecular cell, 2024).
